B1: His6-tagged bovine Pγr (rod PDE6 inhibitory γ-subunit), bacterially expressed (natural protein, UniProt P04972 1-87, looked up)
chain: MNLEPPKAEIRSATRVMGGPVTPRKGPPKFKQRQTRQFKSKPPKKGVQGFGDDIPGMEGLGTDITVICPWEAFNHLELHELAQYGII
notes: also called rod Pγ; purified recombinant Pγr
B2: human cone PDE6C (aa 1-830), expressed as an EGFP fusion protein and released with HRV-3C protease (enzyme, UniProt P51160 1-830, looked up)
chain: MGEINQVAVEKYLEENPQFAKEYFDRKLRVEVLGEIFKNSQVPVQSSMSFSELTQVEESALCLELLWTVQEEGGTPEQGVHRALQRLAHLLQADRCSMFLCRSRNGIPEVASRLLDVTPTSKFEDNLVGPDKEVVFPLDIGIVGWAAHTKKTHNVPDVKKNSHFSDFMDKQTGYVTKNLLATPIVVGKEVLAVIMAVNKVNASEFSKQDEEVFSKYLNFVSIILRLHHTSYMYNIESRRSQILMWSANKVFEELTDVERQFHKALYTVRSYLNCERYSIGLLDMTKEKEFYDEWPIKLGEVEPYKGPKTPDGREVNFYKIIDYILHGKEEIKVIPTPPADHWTLISGLPTYVAENGFICNMMNAPADEYFTFQKGPVDETGWVIKNVLSLPIVNKKEDIVGVATFYNRKDGKPFDEHDEYITETLTQFLGWSLLNTDTYDKMNKLENRKDIAQEMLMNQTKATPEEIKSILKFQEKLNVDVIDDCEEKQLVAILKEDLPDPRSAELYEFRFSDFPLTEHGLIKCGIRLFFEINVVEKFKVPVEVLTRWMYTVRKGYRAVTYHNWRHGFNVGQTMFTLLMTGRLKKYYTDLEAFAMLAAAFCHDIDHRGTNNLYQMKSTSPLARLHGSSILERHHLEYSKTLLQDESLNIFQNLNKRQFETVIHLFEVAIIATDLALYFKKRTMFQKIVDACEQMQTEEEAIKYVTVDPTKKEIIMAMMMTACDLSAITKPWEVQSQVALMVANEFWEQGDLERTVLQQQPIPMMDRNKRDELPKLQVGFIDFVCTFVYKEFSRFHKEITPMLSGLQNNRVEWKSLADEYDAKMKVIEEEA
notes: human PDE6C, cone cGMP phosphodiesterase catalytic subunit, truncation of the C-terminal 28 residues (aa 1-830); GFP and PDE6C cDNAs were spliced with primers containing the HRV-3C site and a FLAG tag, cloned into pFastBac HT A by Gibson assembly; also called EGFP-PDE6C; source: Sf9 cells (baculovirus), alone or co-expressed with AIPL1 or with AIPL1 and Pγ; purified (EGFP-nanobody resin, HRV-3C …)

The target of data set [1] is B2. Kind of data set: inhibition of enzyme activity (cGMP hydrolysis); purified PDE6C (co-expressed with AIPL1) inhibited by purified recombinant Pγr; 20 mM Tris-HCl pH 7.5, 120 mM NaCl, 2 mM MgSO4, 1 mM BME, 10 μM [3H]cGMP, 25 °C. The following applies: both partners purified.
For data set [2], the target named is T1, trypsin-activated PDE6AB from mouse retina extract (mouse (endogenous in retina), UniProt P27664 1-859; P23440 1-856).
T1 construct: mouse rod PDE6 catalytic subunit PDE6A, after trypsin treatment of the retina lysate; mouse rod PDE6 catalytic subunit PDE6B, after trypsin treatment of the retina lysate; Trypsin treatment degrades the endogenous Pγ; The retina extract also holds a few percent of cone PDE6C activity; also called mouse rod PDE6; source: endogenous, C57BL/J mouse retina lysate, trypsin-treated; copies: 1 + 1
Nature of the data set: inhibition of enzyme activity (cGMP hydrolysis); trypsin-treated mouse retina extract inhibited by purified recombinant Pγr; 20 mM Tris-HCl pH 7.5, 120 mM NaCl, 2 mM MgSO4, 1 mM BME, 10 μM [3H]cGMP, 25 °C. To be noted: one partner purified.

Data set [3] deals with the molecule itself. Kind of data set: SEC; PDE6C co-expressed with AIPL1, eluted from EGFP-nanobody resin with HRV-3C, preincubated with 3 mM ATP for 10 min at 25 °C; Superose 6 10/300 GL in 10 mM HEPES pH 7.5, 150 mM NaCl, 1 mM TCEP, 2 mM MgCl2. Background: Size exclusion chromatography separates by hydrodynamic size, large species first.

Values joined by “and” are separate entries in the source; they are usually repeats but may differ in a detail not shown here. Identical values can stand only once.

T1 sequence (P27664 whole entry, chain 1 of 2): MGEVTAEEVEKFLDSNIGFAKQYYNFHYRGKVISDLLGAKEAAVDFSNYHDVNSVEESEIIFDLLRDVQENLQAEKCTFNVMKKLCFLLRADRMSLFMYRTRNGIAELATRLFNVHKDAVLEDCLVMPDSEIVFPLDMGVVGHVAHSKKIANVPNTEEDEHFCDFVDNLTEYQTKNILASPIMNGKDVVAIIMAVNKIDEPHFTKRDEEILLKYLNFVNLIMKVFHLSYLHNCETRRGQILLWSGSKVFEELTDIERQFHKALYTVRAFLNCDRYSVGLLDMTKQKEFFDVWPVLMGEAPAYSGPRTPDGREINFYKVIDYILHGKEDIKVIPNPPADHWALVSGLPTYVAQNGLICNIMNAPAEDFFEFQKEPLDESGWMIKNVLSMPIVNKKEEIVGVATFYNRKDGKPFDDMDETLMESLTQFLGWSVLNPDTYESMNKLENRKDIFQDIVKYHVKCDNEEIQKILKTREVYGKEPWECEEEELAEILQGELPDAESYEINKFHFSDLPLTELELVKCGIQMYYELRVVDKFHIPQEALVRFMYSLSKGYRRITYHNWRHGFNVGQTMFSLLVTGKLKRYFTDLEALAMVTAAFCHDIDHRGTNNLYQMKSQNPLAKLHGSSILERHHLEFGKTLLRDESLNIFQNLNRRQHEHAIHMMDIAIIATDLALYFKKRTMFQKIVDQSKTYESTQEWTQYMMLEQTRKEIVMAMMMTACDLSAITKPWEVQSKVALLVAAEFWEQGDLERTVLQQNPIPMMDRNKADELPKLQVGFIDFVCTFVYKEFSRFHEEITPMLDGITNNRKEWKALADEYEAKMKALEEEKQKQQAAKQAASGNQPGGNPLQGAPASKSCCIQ
T1 sequence (P23440 whole entry, chain 2 of 2): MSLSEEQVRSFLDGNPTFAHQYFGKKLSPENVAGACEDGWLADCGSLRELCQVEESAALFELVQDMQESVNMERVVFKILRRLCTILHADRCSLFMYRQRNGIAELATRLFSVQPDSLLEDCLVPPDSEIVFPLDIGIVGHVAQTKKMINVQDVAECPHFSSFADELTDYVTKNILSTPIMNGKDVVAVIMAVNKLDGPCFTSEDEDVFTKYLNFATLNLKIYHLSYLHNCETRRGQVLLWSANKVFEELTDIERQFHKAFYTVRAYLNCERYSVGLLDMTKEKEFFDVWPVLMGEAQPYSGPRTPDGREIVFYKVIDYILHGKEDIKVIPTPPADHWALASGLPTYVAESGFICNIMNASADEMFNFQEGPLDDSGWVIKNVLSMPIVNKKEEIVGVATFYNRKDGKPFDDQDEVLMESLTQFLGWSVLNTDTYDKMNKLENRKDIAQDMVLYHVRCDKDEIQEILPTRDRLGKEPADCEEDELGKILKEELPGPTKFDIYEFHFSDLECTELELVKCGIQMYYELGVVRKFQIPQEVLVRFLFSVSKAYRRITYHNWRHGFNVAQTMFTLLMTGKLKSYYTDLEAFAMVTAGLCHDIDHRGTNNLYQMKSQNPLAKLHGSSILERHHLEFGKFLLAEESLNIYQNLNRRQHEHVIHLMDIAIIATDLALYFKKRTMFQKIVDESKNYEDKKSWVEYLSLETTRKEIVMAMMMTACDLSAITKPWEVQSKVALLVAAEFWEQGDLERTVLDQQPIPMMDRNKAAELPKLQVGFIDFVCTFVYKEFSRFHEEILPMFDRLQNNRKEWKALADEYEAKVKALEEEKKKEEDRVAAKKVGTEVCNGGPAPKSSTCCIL

In general, Ki refers to a dissociation constant, usually derived from enzyme kinetics or from competition with a known ligand. With B1, the Ki in data set [1] was 0.095 nM and 0.088 nM; in data set [2], 0.089 nM.

In general, stoichiometry N refers to a count of units in the complex or per binding partner. As for B2, in data set [3], the “stoichiometry N” value came to 2.

These data come from PMC10819763, “Reconstitution of the phosphodiesterase 6 maturation process important for photoreceptor cell function” (The Journal of Biological Chemistry, 2023).
